According to patent US9340577B2, “HLA binding motifs and peptides and their uses” (priority 1992, dated 2016):
No end group written: not given here.

What was measured:
[1] = target: A2.1 HLA molecules (Homo sapiens, UniProt P04439, D140Y/D185E/D98H/E176V/E277Q/G131W/G231S/I119V/I121R/I166T/I218V/L300P/L318F/N151K/N90K/P208A/P217A/Q86G/Q94H/R138H/R169H/T345S); assay type: binding; parameters: A*0201 / A2.1 Binding / A2 Bind. / A2 / A2.1 (binding capacity): scale not given here
[2] = target: HLA-A*0201 (HLA-A2.1) (Homo sapiens, UniProt P04439, D140Y/D185E/D98H/E176V/E277Q/G131W/G231S/I119V/I121R/I166T/I218V/L300P/L318F/N151K/N90K/P208A/P217A/Q86G/Q94H/R138H/R169H/T345S); assay: biochemical; assay type: binding
[3] = target: DRB5*0101 (Homo sapiens, UniProt P01903+Q30154); assay: biochemical; settings: DRB5*0101

Substance: SLYNTVSTL [Peptide F136.04]
- A*0201 [1]: 0.0320

Substance: SLYSILSPFL
- A2 Bind. [1]: 0.2000

Substance: SMHCKPEEV [listing 1 of 2 here]
- A2 Bind. [1]: 0.0180
- binding to HLA-A2.1 (column 3; no allele head shown for these rows) [2]: 0.018

Substance: SMHCKPEEV [listing 2 of 2 here]
- A2.1 relative binding (ratio of binding of test peptide relative to standard peptide) [1]: 0.018

Substance: SMLSPFLPLV [listing 1 of 2 here]
- A2 Bind. [1]: 0.9700

Substance: SMLSPFLPLV [listing 2 of 2 here]
- A2.1 relative binding (ratio of binding of test peptide relative to standard peptide) [1]: 0.97

Substance: TAEYGDKWLDAKSTWYGKPT [Peptide 620.02]
- IC50 [3]: 10 µM

Substance: TISGVLWQV [Peptide F124.08]
- A*0201 [1]: 0.1400

Substance: TLAA MHYSKL (TLAAMHYSKL)
- A2.1 Binding [1]: 0.0008

Substance: TLATWVGVNL
- A2 Bind. [1]: 0.5700

Substance: TLMSIVSSL
- A2 Bind. [1]: 0.2000

Substance: TLNIVRDHV
- A2.1 Binding [1]: 0.0005

Substance: TLRMSSKAV
- A2.1 Binding [1]: 0.0001

Substance: TMELMIRTV
- A2.1 Binding [1]: 0.0029

Substance: TMFEALP HI (TMFEALPHI)
- A2 Bind. [1]: 0.2000

Substance: VLARTFTPV
- A2 Bind. [1]: 0.0440
- A2.1 Binding [1]: 0.044

Substance: VMIAMEGGHV
- A2 Bind. [1]: 0.0530
- binding to HLA-A2.1 (column 3; no allele head shown for these rows) [2]: 0.053

Substance: VMVTCLGLS V (VMVTCLGLSV)
- A2 Bind. [1]: 0.3000

Substance: VTTEVAFGL
- A2 Bind. [1]: 0.0360

Substance: VVSYVNVNM
- A2 Bind. [1]: 0.0100

Substance: WEELSVMEV
- A2.1 relative binding (ratio of binding of test peptide relative to standard peptide) [1]: 0
- binding to HLA-A2.1 (column 3; no allele head shown for these rows) [2]: 0

Substance: WGLLGFAA
- A2.1 relative binding (ratio of binding of test peptide relative to standard peptide) [1]: 0.0009

Substance: WLKLLRDAL
- A2.1 Binding [1]: 0

Substance: WLLRGTSFV [listing 1 of 2 here]
- A2 Bind. [1]: 0.1000

Substance: WLLRGTSFV [listing 2 of 2 here]
- A2.1 relative binding (ratio of binding of test peptide relative to standard peptide) [1]: 0.10

Substance: WLVTNGSYL
- A2 Bind. [1]: 0.0180

Substance: WMELSVMEV [listing 1 of 2 here]
- A2 Bind. [1]: 0.0410
- binding to HLA-A2.1 (column 3; no allele head shown for these rows) [2]: 0.041

Substance: WMELSVMEV [listing 2 of 2 here]
- A2.1 relative binding (ratio of binding of test peptide relative to standard peptide) [1]: 0.041

Substance: WMWFPSVLL
- A2 Bind. [1]: 0.0360
- A2.1 Binding [1]: 0.036

Substance: YALTVVWLL
- A2 Bind. [1]: 0.0415

Substance: YEFLWGPRA
- A2.1 relative binding (ratio of binding of test peptide relative to standard peptide) [1]: 0
- binding to HLA-A2.1 (column 3; no allele head shown for these rows) [2]: 0

Substance: YLCCGITLL
- A2 Bind. [1]: 0.0210
- A2.1 Binding [1]: 0.021

Substance: YLHTLWKAGV [listing 1 of 2 here]
- A2 [1]: 0.1300
- A2 Bind. [1]: 0.1500

Substance: YLHTLWKAGV [listing 2 of 2 here]
- A2.1 relative binding (ratio of binding of test peptide relative to standard peptide) [1]: 0.15

Substance: YLLDLQEPV [listing 1 of 2 here]
- A2 Bind. [1]: 0.2200

Substance: YLLDLQEPV [listing 2 of 2 here]
- A2.1 relative binding (ratio of binding of test peptide relative to standard peptide) [1]: 0.22

Substance: YLLLYFSPV
- A2 Bind. [1]: 0.7500
- A2.1 Binding [1]: 0.75

Substance: YLLPRRGPRL
- A2 [1]: 0.0730

Substance: YLPSALNPV [listing 1 of 2 here]
- A2 Bind. [1]: 0.3200

Substance: YLPSALNPV [listing 2 of 2 here]
- A2.1 relative binding (ratio of binding of test peptide relative to standard peptide) [1]: 0.32

Substance: YLQLVFGIEV
- A2 Bind. [1]: 0.3700
- binding to HLA-A2.1 (column 3; no allele head shown for these rows) [2]: 0.37

Substance: YLYGVGSAV
- A2 Bind. [1]: 0.1600

Substance: YLYRLNFCL
- A2 Bind. [1]: 0.7200
- A2.1 Binding [1]: 0.72

Substance: YMFLWGPRV [listing 1 of 2 here]
- A2 Bind. [1]: 0.2200
- binding to HLA-A2.1 (column 3; no allele head shown for these rows) [2]: 0.22

Substance: YMFLWGPRV [listing 2 of 2 here]
- A2.1 relative binding (ratio of binding of test peptide relative to standard peptide) [1]: 0.22

Substance: YMLDLQPET
- A2 Bind. [1]: 1.4000
- A2.1 relative binding (ratio of binding of test peptide relative to standard peptide) [1]: 1.4

Substance: YMLDLQPEV [listing 1 of 2 here]
- A2 Bind. [1]: 1.9000

Substance: YMLDLQPEV [listing 2 of 2 here]
- A2.1 relative binding (ratio of binding of test peptide relative to standard peptide) [1]: 1.9
